Laboratory results: CN117396514A (ELEKTA S R L, dated 2024)

T1: 人MerTK, M2c分化的人巨噬细胞上 (human, UniProt Q12866 21-999)
T1 sequence: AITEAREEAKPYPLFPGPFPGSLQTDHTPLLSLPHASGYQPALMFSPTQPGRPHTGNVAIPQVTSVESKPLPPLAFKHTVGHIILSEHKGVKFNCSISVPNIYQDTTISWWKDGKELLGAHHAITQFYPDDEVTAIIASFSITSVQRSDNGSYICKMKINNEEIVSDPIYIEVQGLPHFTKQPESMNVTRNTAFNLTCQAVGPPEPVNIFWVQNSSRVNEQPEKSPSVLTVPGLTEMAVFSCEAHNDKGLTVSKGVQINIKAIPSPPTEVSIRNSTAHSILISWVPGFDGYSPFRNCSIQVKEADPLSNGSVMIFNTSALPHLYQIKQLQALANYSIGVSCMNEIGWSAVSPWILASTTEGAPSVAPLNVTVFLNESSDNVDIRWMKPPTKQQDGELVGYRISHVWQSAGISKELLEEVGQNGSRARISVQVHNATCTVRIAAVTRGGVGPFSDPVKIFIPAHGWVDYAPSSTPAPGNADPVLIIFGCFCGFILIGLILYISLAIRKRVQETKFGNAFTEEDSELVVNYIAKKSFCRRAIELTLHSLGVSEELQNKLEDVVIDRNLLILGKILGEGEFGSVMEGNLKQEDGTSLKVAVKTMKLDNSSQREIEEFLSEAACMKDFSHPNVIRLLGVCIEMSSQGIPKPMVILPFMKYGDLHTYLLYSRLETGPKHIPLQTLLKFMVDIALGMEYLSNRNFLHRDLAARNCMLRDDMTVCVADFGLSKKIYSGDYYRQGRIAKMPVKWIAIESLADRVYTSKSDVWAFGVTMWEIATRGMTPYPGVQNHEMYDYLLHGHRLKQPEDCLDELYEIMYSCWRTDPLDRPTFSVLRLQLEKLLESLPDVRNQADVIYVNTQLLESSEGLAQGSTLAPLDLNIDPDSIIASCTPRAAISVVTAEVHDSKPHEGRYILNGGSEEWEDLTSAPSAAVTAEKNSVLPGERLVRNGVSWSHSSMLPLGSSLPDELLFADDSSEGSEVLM

B1: 单价(单臂)抗MerTK抗体MTK-33.11 (Fc LALAPS) (antibody, V domains shown)
VH: QVQLVQSGAEVKKPGASVKVSCKASGYTFTSYWMHWVRQAPGQGLEWIGVIDPSDNYINYNQKFQGRVTMTRDTSTSTVYMELSSLRSEDTAVYYCAREAWTRGYFDYWGQGTLVTVSS
VL: DIQMTQSPSSLSASVGDRVTITCQASRSVRNTVAWYQQKPGKAPKLLIYYASNRYTGVPSRFSGSGSGTDFTFTISSLQPEDIATYYCQQDYRSPFTFGQGTKLEIK
modifications: Dylight650 conjugate in the FACS binding assay (site not stated)
B2: 单价(单臂)抗MerTK抗体MTK-16.2 (Fc LALAPS) (antibody, V domains shown)
VH: QVQLVQSGSELKKPGASVKVSCKASGYTFTNHGMNWVRQAPGQGLEWMGWINTYTGEPTYADDFKGRFVFSLDTSVSTAYLQISSLKAEDTAVYYCARKGVTAARYFDYWGQGTLVTVSS
VL: DIQMTQSPSSLSASVGDRVTITCRASQNVRTAVAWYQQKPGKAPKRLIYLASNRHTGVPSRFSGSGSGTEFTLTISNLQPEDFATYYCLQHWNYPLTFGGGTKLEIK
modifications: Dylight650 conjugate in the FACS binding assay (site not stated)
B3: 二价(全IgG)抗MerTK抗体MTK-16.2 (Fc LALAPS) (antibody, V domains shown)
VH: QVQLVQSGSELKKPGASVKVSCKASGYTFTNHGMNWVRQAPGQGLEWMGWINTYTGEPTYADDFKGRFVFSLDTSVSTAYLQISSLKAEDTAVYYCARKGVTAARYFDYWGQGTLVTVSS
VL: DIQMTQSPSSLSASVGDRVTITCRASQNVRTAVAWYQQKPGKAPKRLIYLASNRHTGVPSRFSGSGSGTEFTLTISNLQPEDFATYYCLQHWNYPLTFGGGTKLEIKR
modifications: Dylight650 conjugate in the FACS binding assay (site not stated)

Columns and labels:
人MerTK, M2c分化的人巨噬细胞上 [1] = molecular target: T1, 人MerTK, M2c分化的人巨噬细胞上; test: cell-based or functional assay
人MerTK, M2c分化的人巨噬细胞上 [2] = molecular target: T1, 人MerTK, M2c分化的人巨噬细胞上; test: FACS, Dylight650-conjugated antibody titrated on M2c differentiated human macrophages; Kd from MFI by Prism (EC50-like)

Binder	胞葬作用 IC50 (efferocytosis of pHrodo-labelled apoptotic Jurkat cells by M2c human macrophages) (人MerTK, M2c分化的人巨噬细胞上 [1]) [nM]	Kd (人MerTK, M2c分化的人巨噬细胞上 [2]) [nM]
B1	~4.4	
B2	37.9	~78
B3	0.436	~52
